These are literature values, as cited in publication PMC12135873.

The term pKa denotes the pH at which an ionisable group is half protonated.

The series concerns the target Cys106 (UniProt position 106, LIAAICAGPTA).

In the case of “DJ-1 (PARK7, Parkinson disease protein 7) (Homo sapiens)”, the pKa is reported as 5.4.
